The nature of this series: Arylsulfatase activity assay with 4-MUS substrate. The series is classed as biochemical. The procedure: The 100-fold concentrated conditioned medium (CM) derived from each transfection of CHO cells as described above was dialyzed into 50 mM HEPES, pH 8.0. The His-tagged fusion proteins were bound to a Ni-NTA resin (QIAGEN) by rotation at 4° C. over night, then washed with 50 mM HEPES (pH 8.0), 3 times. 250 mM imidazole in 50 mM HEPES, pH 8.0 was used to elute the His-tagged fusion proteins from Ni-NTA. The resins with boud material or the eluates were mixed with 10 mM 4-methylumbelliferyl-sulfate (4-MUS; a substrate for sulfatases), and 10 mM lead acetate, in a total volume of 100 μl. The reaction mixtures were incubated at 37° C. for various periods of time. Reactions were terminated by the addition of 100 μl of 0.5 M Na2CO3/NaHCO3, pH 10.7 to 20 μl of the reaction mixture. The fluorescence of 4-methylumbelliferone was measured on a Multi-Well Plate Reader CytoFluorII (PerSeptive Biosystems). The fluorescence was determined at an excitation wavelength of 360 nm and emission wavelength of 460 nm. A substrate dose response curve was performed over the concentration range of 1 to 10 mM 4-MUS.
The synthetic fluorogenic compound 4-methylumbelliferyl sulfate (4-MUS) serves as a substrate for most sulfatases, both in the lysosomal and non-lysosomal classes. CHO cells were transfected with a cDNA for HSulf-1 or HSulf-2 or a vector control. Conditioned medium was collected and incubated with nickel resin (Ni-NTA) to bind the His-tagged recombinant proteins. The bead-bound material was assayed for activity on 4-MUS. For both enzymes, hydrolysis depended on time of reaction (FIG. 15A), concentration of substrate (FIG. 15B), and amount of CM (FIG. 15C). From the substrate dose-response curves of FIG. 15B and based on estimates of Sulf protein levels in CM, we approximated Vmax for the two Sulfs to be in the range of 1000-2000 nmol per min per mg of Sulf protein. Human glucosamine-6-sulfatase has a considerably lower Vmax against 4-MUS ([…]) whereas the Vmax of human N-acetylgalactosamine-4-sulfatase (arylsulfatase B) is much higher (48000).
HSulf-1, HSulf-2 or their mutated forms (HSulf-1 ΔCC and HSulf-2 ΔCC) was purified from the conditioned medium of transfected CHO cells by binding to Ni-NTA beads. A) The bead-bound material was tested for arylsulfatase activity as a function of time against 10 mM 4-MUS substrate at pH 8. The “no-enzyme” control was based on testing conditioned medium from vector-control transfected CHO cells. No activity was detected in the absence of added substrate (not shown). […] The activity of each Sulf was determined relative to that of beads exposed to an equivalent volume of vector-control conditioned medium. The activity of HG6S was determined (24 hr incubation) relative to that of the buffer. […]

With “HSulf-2 ΔCC: catalytically inactive HSulf-2, cysteines 88 and 89 mutated to alanines (CC88, 89AA)”, the “arylsulfatase activity of cysteine-to-alanine mutants” value (4-MUS, pH 8, 2 hr, mutant protein levels in CM equivalent to wild-type) was “Lack of the activity”.

Turning to “HSulf-2: Human SULF2, an 870 amino acid sulfatase protein, SEQ ID NO:06; expressed with C-terminal Myc-His tag”, the sulfatase activity entry (His-tagged fusion proteins from CHO conditioned medium, 10 mM 4-MUS, 37° C.) was “Time-dependent sulfatase activity was detected”.
